{
  "source": "patent US20230203161A1",
  "about": "(TENEOBIO, published 2023)",
  "data": [
    {"biological_target": "T1, human Prostate Specific Membrane Antigen (PSMA) (human, UniProt Q04609 1-750)", "T1 construct": "whole, on cells; also called Glutamate Carboxypeptidase II; FOLH1", "T1 sequence (Q04609 whole entry)": "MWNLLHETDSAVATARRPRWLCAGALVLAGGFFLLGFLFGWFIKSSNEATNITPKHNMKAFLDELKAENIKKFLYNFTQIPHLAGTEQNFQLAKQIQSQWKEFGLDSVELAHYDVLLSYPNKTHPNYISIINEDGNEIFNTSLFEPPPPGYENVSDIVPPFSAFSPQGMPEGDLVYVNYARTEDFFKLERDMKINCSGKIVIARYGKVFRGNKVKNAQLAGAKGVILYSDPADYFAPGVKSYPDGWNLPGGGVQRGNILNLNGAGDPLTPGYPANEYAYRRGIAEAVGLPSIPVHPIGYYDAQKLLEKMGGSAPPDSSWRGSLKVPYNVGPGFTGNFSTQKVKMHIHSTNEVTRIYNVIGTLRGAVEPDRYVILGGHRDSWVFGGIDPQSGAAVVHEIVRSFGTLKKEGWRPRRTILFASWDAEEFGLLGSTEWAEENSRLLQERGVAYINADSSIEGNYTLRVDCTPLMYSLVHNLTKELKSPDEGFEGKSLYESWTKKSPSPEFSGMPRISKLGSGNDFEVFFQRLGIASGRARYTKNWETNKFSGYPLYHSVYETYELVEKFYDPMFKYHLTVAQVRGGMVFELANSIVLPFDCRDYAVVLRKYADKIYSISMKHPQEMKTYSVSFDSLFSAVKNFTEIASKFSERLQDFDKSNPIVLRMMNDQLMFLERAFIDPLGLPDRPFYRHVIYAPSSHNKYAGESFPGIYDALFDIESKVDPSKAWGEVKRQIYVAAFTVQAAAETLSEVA", "test": "flow cytometry on LNCaP cells", "experimental": "Briefly, 50,000 target cells were stained with a dilution series of purified UniAbs™ for 30 minutes at 4° C. Following incubation, the cells were washed twice with flow cytometry buffer (1×PBS, 1% BSA, 0.1% NaN₃) and stained with goat F(ab′)₂ anti-human IgG conjugated to R-phycoerythrin (PE) (Southern Biotech, cat. #2042-09) to detect cell-bound antibodies. After a 20-minute incubation at 4° C., the cells were washed twice with flow cytometry buffer and the mean fluorescence intensity (MFI) was measured by flow cytometry. The MFI of cells stained with secondary antibody alone were used for determination of background signal and binding of each antibody was converted to fold over background. […] In some experiments EC50 values were calculated using GraphPad Prism 7.\nColumn 1 indicates the clone ID of the HCAb. Column 2 indicates binding to LNCaP cells measured as fold over the background MFI signal.", "units": {"fold over background MFI": "fold over background"}, "values": [
      {"binder": "anti-PSMA heavy-chain antibody (HCAb) clone ID 325920 (antibody, V domains shown, Heavy chain-only antibody (UniAb)) VH: QLQLQESGPGLVKPSETLSLTCTVSGGSISSSSYYWGWIRQPPGKGLEWIGSIDYSGYTYYNPSLQSRVTISVDTSKNQFSLKLSSVTAADTAVYNCARHKAATADFDYRGQGTLVTVSS", "fold over background MFI": 282},
      {"binder": "anti-PSMA heavy-chain antibody (HCAb) clone ID 326109 (antibody, V domains shown, Heavy chain-only antibody (UniAb)) VH: QLQLQESGPGLVKPSETLSLTCTVSGGSISSNSYYWGWIRQSPGKGLEWLGSIYDSGSTHYNPSLKSRVIISGDTSKNQFSLKLSSVTAADTAVYYCARHKAATADFDYRGQGTLVTVSS", "fold over background MFI": 25},
      {"binder": "anti-PSMA heavy-chain antibody (HCAb) clone ID 346165 (antibody, V domains shown, Heavy chain-only antibody (UniAb)) VH: QLQLQESGPGLVKPSETLSLTCTVSGGSISSSSYYWGWIRQPPGKGLEWIGSVDYSGYTYYNPSLQSRVTISVDTSKNQFSLKLSSVTAADTAVYNCARHKAATADFDYRGQGTLVTVSS", "fold over background MFI": 243},
      {"binder": "anti-PSMA heavy-chain antibody (HCAb) clone ID 346181 (antibody, V domains shown, Heavy chain-only antibody (UniAb)) VH: QLQLQESGPGLVKPSETLSLTCTVSGGSISSSNYFWGWIRQSPGKGLEWIGSIDYSGYTYYNPSLKSRVTISVDTSKNQFSLKLSSVTAADTAVYNCARHKAATADFDYRGQGTLVTVSS", "fold over background MFI": 264},
      {"binder": "anti-PSMA heavy-chain antibody (HCAb) clone ID 345480 (antibody, V domains shown, Heavy chain-only antibody (UniAb)) VH: QVQLVESGGGVVQPGRSLRLSCAASGFSFSSYGMHWVRQAPGKGLEWVAVIWYDGSNRYYADSVKGRFTISRDNSKNTLYLQMNSLRAEDTAVYYCAREPRIGYYYESSGYYSLDYRGQGTLVTVSS", "fold over background MFI": 47},
      {"binder": "anti-PSMA heavy-chain antibody (HCAb) clone ID 325742 (antibody, V domains shown, Heavy chain-only antibody (UniAb)) VH: QVQLVESGGGVVQPGRSLRLSCAASGFSFSSYGMHWVRQAPGKGLEWVAVIWYDGSNKYYADSVKGRFTISRDYSKNTLYLQMNSLRAEDTAVYYCAREPRIGYYYESSGYDSLDYRGQGTLVTVSS", "fold over background MFI": 200},
      {"binder": "anti-PSMA heavy-chain antibody (HCAb) clone ID 325836 (antibody, V domains shown, Heavy chain-only antibody (UniAb)) VH: QVQLVESGGGVVQPGRSLRLSCAASGFSFRSYGMHWVRQAPGKGLEWVAVIWYDGSNKYYADSVKGRFTISRDYSKNTLYLQMNSLRAEDTAVYYCAREPRIGYYYDSSGYDSLDYRGQGTLVTVSS", "fold over background MFI": 163},
      {"binder": "anti-PSMA heavy-chain antibody (HCAb) clone ID 325867 (antibody, V domains shown, Heavy chain-only antibody (UniAb)) VH: QVQLVESGGGVVQPGRSLRLSCAASGFSFRSYGMHWVRQAPGKGLEWVAVIWYDGSNKYYADSVKGRFTISRDYSKNTLYLQMNSLRAEDTAVYYCAREPRIGYYYESSGYDSLDYRGQGTLVTVSS", "fold over background MFI": 210},
      {"binder": "anti-PSMA heavy-chain antibody (HCAb) clone ID 326027 (antibody, V domains shown, Heavy chain-only antibody (UniAb)) VH: QVQLVESGGGVVQPGRSLRLSCAASGFSFRSYGMHWVRQAPGKGLEWVAVIWYDGSNKYYADSVKGRFTISRDNSKNTLYLQMNSLRAEDTAVYYCAREPRIGYYYDSSGYDSLDYRGQGTLVTVSS", "fold over background MFI": 138},
      {"binder": "anti-PSMA heavy-chain antibody (HCAb) clone ID 326028 (antibody, V domains shown, Heavy chain-only antibody (UniAb)) VH: QVQLVESGGGVVQPGRSLRLSCAASGFSFRSYGMHWVRQAPGKGLEWVAVISYDGSNKYYADSVKGRFTISRDYSKNTLYLQMNSLRAEDTAVYYCAREPRIGYYYDSSGYDSLDYRGQGTLVTVSS", "fold over background MFI": 117},
      {"binder": "anti-PSMA heavy-chain antibody (HCAb) clone ID 326029 (antibody, V domains shown, Heavy chain-only antibody (UniAb)) VH: QVQLVESGGGVVQPGRSLRLSCAASGFSFSRYGMHWVRQAPGKGLEWVAVISYDGSNKYYADSVKGRFTISRDNSKNTLYLQMNSLRAEDTAVYYCAREPRVGYYYETSGYYSLDYRGQGTLVTVSS", "fold over background MFI": 109},
      {"binder": "anti-PSMA heavy-chain antibody (HCAb) clone ID 326084 (antibody, V domains shown, Heavy chain-only antibody (UniAb)) VH: QVQLVESGGGVVQPGRSLRLSCAASGFSFSSYGMHWVRQAPGKGLEGVAVIWYDGSNRYYADSVKGRFTISRDNSKNTLYLQMNSLRAEDTAVYYCAREPRIGYYYDSSGYYSLDYRGQGTLVTVSS", "fold over background MFI": 125},
      {"binder": "anti-PSMA heavy-chain antibody (HCAb) clone ID 326087 (antibody, V domains shown, Heavy chain-only antibody (UniAb)) VH: QVQLVESGGGVVQPGRSLRLSCAASGFIFRSYGMHWVRQAPGKGPEWVAVIWYDGSNKYYADSVKGRFTISRDNSKNTLYLQMNSLRAEDTAVYYCAREPRIGYYYDSSGYDSLDYRGQGTLVTVSS", "fold over background MFI": 129},
      {"binder": "anti-PSMA heavy-chain antibody (HCAb) clone ID 326116 (antibody, V domains shown, Heavy chain-only antibody (UniAb)) VH: QVQLVESGGGVVQPGRSLRLSCAASGFSFSRYGMHWVRQAPGKGLEGVAVISYDGSNKYYADSVKGRFTISRDYSKNTLYLQMNSLRAEDTAVYYCAREPRIGYYYDSSGYDSLDYRGQGTLVTVSS", "fold over background MFI": 38},
      {"binder": "anti-PSMA heavy-chain antibody (HCAb) clone ID 345421 (antibody, V domains shown, Heavy chain-only antibody (UniAb)) VH: QVQLVESVGGVVQPGRSLRLSCAASGFSFSSYGMHWVRQAPGKGLEGVAVIWYDGSNRYYADSVKGRFTISRDNSKNTLYLQMNSLRAEDTAVYYCAREPRIGYYYESSGYYSLDYRGQGTLVTVSS", "fold over background MFI": 22},
      {"binder": "anti-PSMA heavy-chain antibody (HCAb) clone ID 345436 (antibody, V domains shown, Heavy chain-only antibody (UniAb)) VH: QVQLVESGGGVVQPGRSLRLSCAASGFSFSRYGMHWVRQAPGKGLEGVAVIWYDGSNKYYADSVKGRFTISRDNSKNTLYLQMNSLRAEDTAVYYCAREPRIGYYYESSGYYSLDYRGQGTLVTVSS", "fold over background MFI": 87},
      {"binder": "anti-PSMA heavy-chain antibody (HCAb) clone ID 345438 (antibody, V domains shown, Heavy chain-only antibody (UniAb)) VH: QVQLVESGGGVVQPGRSLRLSCAASGFSFSSYGMHWVRQAPGKGPEWVAVIWYDGSNKYYADSVKGRFTISRDNSKNTLYLQMNSLRAEDTAVYYCAREPRIGYYYESSGYYSLDYRGQGTLVTVSS", "fold over background MFI": 13},
      {"binder": "anti-PSMA heavy-chain antibody (HCAb) clone ID 345443 (antibody, V domains shown, Heavy chain-only antibody (UniAb)) VH: QVQLVESGGGVVQPGRSLRLSCAASGFSFSSYGMHWVRQAPGKGLEGVAVIWYDGSNRYYADSVKGRFTISRDNSKNTLFLQMNSLRAEDTAVYYCAREPRIGYYYESSGYYSLDYRGQGTLVTVSS", "fold over background MFI": 84},
      {"binder": "anti-PSMA heavy-chain antibody (HCAb) clone ID 345444 (antibody, V domains shown, Heavy chain-only antibody (UniAb)) VH: QVQLVESGGGVVQPGRSLRLSCAASGFTFSSYGMHWVRQAPGKGLEGVAVIWYDGSNRYYADSVKGRFTISRDNSKNTLYLQMNSLRAEDTAVYYCAREPRIGYYYESSGYYSLDYRGQGTLVTVSS", "fold over background MFI": 23},
      {"binder": "anti-PSMA heavy-chain antibody (HCAb) clone ID 345447 (antibody, V domains shown, Heavy chain-only antibody (UniAb)) VH: QVQLVESGGGVVQPGRSLRLSCAASGFSFSSYGMHWVRQAPGKGLEGVAVISYDGSNRYYADSVKGRFTISRDNSKNTLYLQMNSLRAEDTAVYYCAREPRIGYYYESSGYYSLDYRGQGTLVTVSS", "fold over background MFI": 14},
      {"binder": "anti-PSMA heavy-chain antibody (HCAb) clone ID 345461 (antibody, V domains shown, Heavy chain-only antibody (UniAb)) VH: QVQLVESGGGVVQPGRSLRLSCAASGFSFTSYGMHWVRQAPGKGLEGVAVIWYDGSNRYYADSVKGRFTISRDNSKNTLYLQMNSLRAEDTAVYYCAREPRIGYYYESSGYYSLDYRGQGTLVTVSS", "fold over background MFI": 102},
      {"binder": "anti-PSMA heavy-chain antibody (HCAb) clone ID 345463 (antibody, V domains shown, Heavy chain-only antibody (UniAb)) VH: QVQLVESGGGVVQPGRSLRLSCAASGFIFRSYGMHWVRQAPGKGPEWVAVIWYDGSNKYYADSVKGRFTISRDNSKNTLYLQMNSLRAEDTAVYYCAREPRIGYYYESSGYYSLDYRGQGTLVTVSS", "fold over background MFI": 68},
      {"binder": "anti-PSMA heavy-chain antibody (HCAb) clone ID 345482 (antibody, V domains shown, Heavy chain-only antibody (UniAb)) VH: QVQLVESGGGVVQPGRSLRLSCAASGFSFSSYGMHWVRQAPGKGLEGVAVIWYDGSNRYYADSVKGRFTISRDSSKNTLYLQMNSLRAEDTAVYYCAREPRIGYYYESSGYYSLDYRGQGTLVTVSS", "fold over background MFI": 80},
      {"binder": "anti-PSMA heavy-chain antibody (HCAb) clone ID 345485 (antibody, V domains shown, Heavy chain-only antibody (UniAb)) VH: QVQLVESGGGVVQPGRSLRLSCAASGFSFRSYGMHWVRQAPGKGLEWVAVIWYDGSNKYYADSVKGRFTISRDNSKNTMYLQMNSLRAEDTAVYYCAREPRIGYYYESSGYYSLDYRGQGTLVTVSS", "fold over background MFI": 71},
      {"binder": "anti-PSMA heavy-chain antibody (HCAb) clone ID 345490 (antibody, V domains shown, Heavy chain-only antibody (UniAb)) VH: QVQLVESGGGLVKPGGSLRLSCAASGFSFSSYGMHWVRQAPGKGLEGVAVIWYDGSNRYYADSVKGRFTISRDNSKNTLYLQMNSLRAEDTAVYYCAREPRIGYYYESSGYYSLDYRGQGTLVTVSS", "fold over background MFI": 80},
      {"binder": "anti-PSMA heavy-chain antibody (HCAb) clone ID 345493 (antibody, V domains shown, Heavy chain-only antibody (UniAb)) VH: QVQLVESGGGVVQPGRSLRLSCAASGFSFSRYGMHWVRQAPGKGLEWVAVIWYDGSNRYYADSVKGRFTISRDNSKNTLYLQMNSLRAEDTAVYYCAREPRIGYYYESSGYYSLDYRGQGTLVTVSS", "fold over background MFI": 101},
      {"binder": "anti-PSMA heavy-chain antibody (HCAb) clone ID 345497 (antibody, V domains shown, Heavy chain-only antibody (UniAb)) VH: QVQLVESGGGVVQPGRSLRLSCAASGFSFSRYGMHWVRQAPGKGLEGVAVIWYDGSNRYYADSVKGRFTISRDNSKNTLYLQMNSLRAEDTAVYYCAREPRIGYYYESSGYYSLDYRGQGTLVTVSS", "fold over background MFI": 112},
      {"binder": "anti-PSMA heavy-chain antibody (HCAb) clone ID 345505 (antibody, V domains shown, Heavy chain-only antibody (UniAb)) VH: QVQLVESGGGVVQPGRSLRLSCAASGFTFISYGMHWVRQAPGKGLEGVAVIWYDGSNRYYADSVKGRFTISRDNSKNTLYLQMNSLRAEDTAVYYCAREPRIGYYYESSGYYSLDYRGQGTLVTVSS", "fold over background MFI": 59},
      {"binder": "anti-PSMA heavy-chain antibody (HCAb) clone ID 345508 (antibody, V domains shown, Heavy chain-only antibody (UniAb)) VH: QVQLVESGGGVVQPGRSLRLSCAASGFSFSSYGMHWVRQAPGKGPEWVAVIWYDGSNRYYADSVKGRFTISRDNSKNTLYLQMNSLRAEDTAVYYCAREPRIGYYYESSGYYSLDYRGQGTLVTVSS", "fold over background MFI": 55},
      {"binder": "anti-PSMA heavy-chain antibody (HCAb) clone ID 345509 (antibody, V domains shown, Heavy chain-only antibody (UniAb)) VH: QVQLVESGGGLVQPGGSLRLSCAASGFSFSSYGMHWVRQAPGKGLEGVAVIWYDGSNKYYADSVKGRFTISRDNSKNTMYLQMNSLRAEDTAVYYCAREPRIGYYYESSGYYSLDYRGQGTLVTVSS", "fold over background MFI": 37}
    ]}
  ]
}
